Target: SARS-CoV-2 Omicron (B.1.1.529) spike, prefusion-stabilized soluble trimeric ectodomain (S-trimer) (SARS-CoV-2 | bacteriophage T4) (UniProt P0DTC2)
Experiment: cryo-EM structure

human ACE2, sequence (Q9BYF1 19-612): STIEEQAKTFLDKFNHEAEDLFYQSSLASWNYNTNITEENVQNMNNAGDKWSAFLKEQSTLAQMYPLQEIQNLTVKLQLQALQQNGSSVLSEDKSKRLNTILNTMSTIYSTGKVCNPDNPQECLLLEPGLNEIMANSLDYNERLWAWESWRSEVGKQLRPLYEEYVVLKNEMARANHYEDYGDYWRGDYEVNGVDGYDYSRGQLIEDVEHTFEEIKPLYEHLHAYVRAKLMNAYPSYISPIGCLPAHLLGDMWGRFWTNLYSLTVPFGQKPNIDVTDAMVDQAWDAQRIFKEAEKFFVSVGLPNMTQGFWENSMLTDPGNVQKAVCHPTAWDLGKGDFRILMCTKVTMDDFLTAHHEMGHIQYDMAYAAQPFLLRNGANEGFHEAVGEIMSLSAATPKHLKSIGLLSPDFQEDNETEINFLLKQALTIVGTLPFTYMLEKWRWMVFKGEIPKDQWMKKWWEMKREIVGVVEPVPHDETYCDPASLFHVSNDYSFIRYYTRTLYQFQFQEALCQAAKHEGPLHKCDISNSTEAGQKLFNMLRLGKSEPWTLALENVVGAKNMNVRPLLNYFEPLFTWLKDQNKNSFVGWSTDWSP

Substance: human ACE2 (from UniProt Q9BYF1) (receptor)
- stoichiometry N (ACE2 per S-trimer): 2

— article doi:10.1101/2021.12.29.474402
